Values quoted from earlier work in article PMC4599565.

Molecular target: VWF (Homo sapiens) (UniProt P04275)

Kd: 0.02 µM
Substance: ADAMTS13 (from UniProt Q76LX8)
